This assay addresses netrin-1 secreted by mouse macrophages (conditioned medium of oxLDL-, CoCl2-, HIF-1alpha- or palmitate-treated macrophages) (mouse) (UniProt O09118). Nature of the assay: cell-based or functional assay.

On to “recombinant rat UNC5b-Fc chimera (cat #1006-UN, R&D Systems) (from UniProt O08722 27-373) (Fc fusion)”, for which the inhibition of migration of naive macrophages to CCL19 by Ntn1+/+ conditioned medium with UNC5b-Fc came to 25%.

The record behind these values is US20210113687A1, “METHODS FOR TREATING INFLAMMATION” (NEW YORK UNIVERSITY, priority 2013, published 2021).
